Reference: the supplement of paper PMC5998384

Tests used:
HeLa Kyoto [1] = experiment: melting temperature (median over replicates), in situ; higher = more thermally stable
HeLa Kyoto [2] = experiment: solubility change mitosis vs G1/S (difference of NP-40 vs SDS log2 ratios) (log2 ratio difference); higher = more soluble in mitosis
HeLa Kyoto [3] = experiment: solubility in G1/S (NP-40 vs SDS abundance) (log2 ratio); higher = more soluble; conditions: cell cycle stage: G1/S
HeLa Kyoto [4] = experiment: thermal stability score vs G1/S (z-score of summed log2 fold changes over temperatures); higher = more thermally stable than in G1/S
[5] = cell cycle stage: early G1 (4.5 h after nocodazole release)
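For melting temperature (median over replicates), in situ in this document: HeLa Kyoto cells synchronized by double thymidine or nocodazole block, proteins quantified by TMT10plex mass spectrometry, three independent biological replicates.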
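For solubility change mitosis vs G1/S (difference of NP-40 vs SDS log2 ratios) in this document: synchronized HeLa Kyoto cells (double thymidine block for G1/S, nocodazole release for mitosis), protein amounts in NP-40 versus SDS lysates quantified by mass spectrometry, three biological replicates.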
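For solubility in G1/S (NP-40 vs SDS abundance) in this document: HeLa Kyoto cells arrested at G1/S by double thymidine block, proteins quantified by TMT10plex mass spectrometry in mild NP-40 versus SDS extracts, three biological replicates.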
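For thermal stability score vs G1/S (z-score of summed log2 fold changes over temperatures) in this document: synchronized HeLa Kyoto cells, proteins quantified by TMT10plex mass spectrometry, three biological replicates, mitosis taken 0.5 h after nocodazole release, G1/S directly after double thymidine block.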

Sequence of PTBP1 (chain, as listed by the source): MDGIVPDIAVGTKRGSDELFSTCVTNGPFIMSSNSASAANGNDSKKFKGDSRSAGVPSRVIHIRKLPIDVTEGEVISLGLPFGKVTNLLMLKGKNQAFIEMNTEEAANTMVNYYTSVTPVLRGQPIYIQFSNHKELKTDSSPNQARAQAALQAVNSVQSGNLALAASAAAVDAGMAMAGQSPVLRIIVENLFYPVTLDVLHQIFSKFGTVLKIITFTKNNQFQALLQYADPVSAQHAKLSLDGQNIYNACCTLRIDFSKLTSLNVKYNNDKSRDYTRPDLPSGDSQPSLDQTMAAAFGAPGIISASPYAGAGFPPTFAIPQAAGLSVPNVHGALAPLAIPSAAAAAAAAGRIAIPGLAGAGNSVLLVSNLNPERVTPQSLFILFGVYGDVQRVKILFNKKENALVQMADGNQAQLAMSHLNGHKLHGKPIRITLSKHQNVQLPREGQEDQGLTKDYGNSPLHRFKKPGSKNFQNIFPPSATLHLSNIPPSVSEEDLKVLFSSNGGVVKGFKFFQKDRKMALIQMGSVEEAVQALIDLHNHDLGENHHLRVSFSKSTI

Substance | melting temperature (HeLa Kyoto [1]; cell cycle stage: G1/S) [°C] | melting temperature (HeLa Kyoto [1]; cell cycle stage: mitosis) [°C] | solubility change mitosis (log2) (HeLa Kyoto [2]) | solubility in G1/S (log2) (HeLa Kyoto [3]) | thermal stability score (HeLa Kyoto [4]; [5]) | thermal stability score (HeLa Kyoto [4]; cell cycle stage: mitosis)
MATAAAAAAVMAPPGCPGSCPNFAVVCSFLERYGPLLDLPELPFPELERVLQAPPPDVGNGEVPKELVELHLKLMRKIGKSVTADRWEKYLIKICQEFNSTWAWEMEKKGYLEMSVECKLALLKYLCECQFDDNLKFKNIINEEDADTMRLQPIGRDKDGLMYWYQLDQDHNVRMYIEEQDDQDGSSWKCIVRNRNELAETLALLKAQIDPVLLKNSSQQDNSSRESPSLEDEETKKEEETPKQEEQKESEKMKSEEQPMDLENRSTANVLEETTVKKEKEDEKELVKLPVIVKLEKPLPENEEKKIIKEESDSFKENVKPIKVEVKECRADPKDTKSSMEKPVAQEPERIEFGGNIKSSHEITEKSTEETEKLKNDQQAKIPLKKREIKLSDDFDSPVKGPLCKSVTPTKEFLKDEIKQEEETCKRISTITALGHEGKQLVNGEVSDERVAPNFKTEPIETKFYETKEESYSPSKDRNIITEGNGTESLNSVITSMKTGELEKETAPLRKDADSSISVLEIHSQKAQIEEPDPPEMETSLDSSEMAKDLSSKTALSSTESCTMKGEEKSPKTKKDKRPPILECLEKLEKSKKTFLDKDAQRLSPIPEEVPKSTLESEKPGSPEAAETSPPSNIIDHCEKLASEKEVVECQSTSTVGGQSVKKVDLETLKEDSEFTKVEMDNLDNAQTSGIEEPSETKGSMQKSKFKYKLVPEEETTASENTEITSERQKEGIKLTIRISSRKKKPDSPPKVLEPENKQEKTEKEEEKTNVGRTLRRSPRISRPTAKVAEIRDQKADKKRGEGEDEVEEESTALQKTDKKEILKKSEKDTNSKVSKVKPKGKVRWTGSRTRGRWKYSSNDESEGSGSEKSSAASEEEEEKESEEAILADDDEPCKKCGLPNHPELILLCDSCDSGYHTACLRPPLMIIPDGEWFCPPCQHKLLCEKLEEQLQDLDVALKKKERAERRKERLVYVGISIENIIPPQEPDFSEDQEEKKKDSKKSKANLLERRSTRTRKCISYRFDEFDEAIDEAIEDDIKEADGGGVGRGKDISTITGHRGKDISTILDEERKENKRPQRAAAARRKKRRRLNDLDSDSNLDEEESEDEFKISDGSQDEFVVSDENPDESEEDPPSNDDSDTDFCSRRLRRHPSRPMRQSRRLRRKTPKKKYSDDDEEEESEENSRDSESDFSDDFSDDFVETRRRRSRRNQKRQINYKEDSESDGSQKSLRRGKEIRRVHKRRLSSSESEESYLSKNSEDDELAKESKRSVRKRGRSTDEYSEADEEEEEEEGKPSRKRLHRIETDEEESCDNAHGDANQPARDSQPRVLPSEQESTKKPYRIESDEEEDFENVGKVGSPLDYSLVDLPSTNGQSPGKAIENLIGKPTEKSQTPKDNSTASASLASNGTSGGQEAGAPEEEEDELLRVTDLVDYVCNSEQL [RSF1] | 49.1 | 51.7 | 0.0168 | -1.03 | 0.31 | 2.21
MAPWTLWRCCQRVVGWVPVLFITFVVVWSYYAYVVELCVFTIFGNEENGKTVVYLVAFHLFFVMFVWSYWMTIFTSPASPSKEFYLSNSEKERYEKEFSQERQQEILRRAARALPIYTTSASKTIRYCEKCQLIKPDRAHHCSACDSCILKMDHHCPWVNNCVGFSNYKFFLLFLLYSLLYCLFVAATVLEYFIKFWTNELTDTRAKFHVLFLFFVSAMFFISVLSLFSYHCWLVGKNRTTIESFRAPTFSYGPDGNGFSLGCSKNWRQVFGDEKKYWLLPIFSSLGDGCSFPTRLVGMDPEQASVTNQNEYARSSGSNQPFPIKPLSESKNRLLDSESQWLENGAEEGIVKSGTNNHVTVAIEN [ZDHHC20] | 55.1 | 58.2 | -0.0867 | -0.00639 | -0.885 | -1.86
MRWGHHLPRASWGSGFRRALQRPDDRIPFLIHWSWPLQGERPFGPPRAFIRHHGSSVDSAPPPGRHGRLFPSASATEAIQRHRRNLAEWFSRLPREERQFGPTFALDTVHVDPVIRESTPDELLRPPAELALEHQPPQAGLPPLALSQLFNPDACGRRVQTVVLYGTVGTGKSTLVRKMVLDWCYGRLPAFELLIPFSCEDLSSLGPAPASLCQLVAQRYTPLKEVLPLMAAAGSHLLFVLHGLEHLNLDFRLAGTGLCSDPEEPQEPAAIIVNLLRKYMLPQASILVTTRPSAIGRIPSKYVGRYGEICGFSDTNLQKLYFQLRLNQPYCGYAVGGSGVSATPAQRDHLVQMLSRNLEGHHQIAAACFLPSYCWLVCATLHFLHAPTPAGQTLTSIYTSFLRLNFSGETLDSTDPSNLSLMAYAARTMGKLAYEGVSSRKTYFSEEDVCGCLEAGIRTEEEFQLLHIFRRDALRFFLAPCVEPGRAGTFVFTVPAMQEYLAALYIVLGLRKTTLQKVGKEVAELVGRVGEDVSLVLGIMAKLLPLRALPLLFNLIKVVPRVFGRMVGKSREAVAQAMVLEMFREEDYYNDDVLDQMGASILGVEGPRRHPDEPPEDEVFELFPMFMGGLLSAHNRAVLAQLGCPIKNLDALENAQAIKKKLGKLGRQVLPPSELLDHLFFHYEFQNQRFSAEVLSSLRQLNLAGVRMTPVKCTVVAAVLGSGRHALDEVNLASCQLDPAGLRTLLPVFLRARKLGLQLNSLGPEACKDLRDLLLHDQCQITTLRLSNNPLTAAGVAVLMEGLAGNTSVTHLSLLHTGLGDEGLELLAAQLDRNRQLQELNVAYNGAGDTAALALARAAREHPSLELLHLYFNELSSEGRQVLRDLGGAAEGGARVVVSLTEGTAVSEYWSVILSEVQRNLNSWDRARVQRHLELLLRDLEDSRGATLNPWRKAQLLRVEGEVRALLEQLGSSGS [NLRX1] | 54.3 | 54.7 | 0.0927 | -0.273 | -0.577 | -2.13
MVWKRLGALVMFPLQMIYLVVKAAVGLVLPAKLRDLSRENVLITGGGRGIGRQLAREFAERGARKIVLWGRTEKCLKETTEEIRQMGTECHYFICDVGNREEVYQTAKAVREKVGDITILVNNAAVVHGKSLMDSDDDALLKSQHINTLGQFWTTKAFLPRMLELQNGHIVCLNSVLALSAIPGAIDYCTSKASAFAFMESLTLGLLDCPGVSATTVLPFHTSTEMFQGMRVRFPNLFPPLKPETVARRTVEAVQLNQALLLLPWTMHALVILKSILPQAALEEIHKFSGTYTCMNTFKGRT [DHRS3] | 54 | 53.1 | -0.135 | -0.137 | 0.157 | -0.582
MALKMVKGSIDRMFDKNLQDLVRGIRNHKEDEAKYISQCIDEIKQELKQDNIAVKANAVCKLTYLQMLGYDISWAAFNIIEVMSASKFTFKRIGYLAASQSFHEGTDVIMLTTNQIRKDLSSPSQYDTGVALTGLSCFVTPDLARDLANDIMTLMSHTKPYIRKKAVLIMYKVFLKYPESLRPAFPRLKEKLEDPDPGVQSAAVNVICELARRNPKNYLSLAPLFFKLMTSSTNNWVLIKIIKLFGALTPLEPRLGKKLIEPLTNLIHSTSAMSLLYECVNTVIAVLISLSSGMPNHSASIQLCVQKLRILIEDSDQNLKYLGLLAMSKILKTHPKSVQSHKDLILQCLDDKDESIRLRALDLLYGMVSKKNLMEIVKKLMTHVDKAEGTTYRDELLTKIIDICSQSNYQYITNFEWYISILVELTRLEGTRHGHLIAAQMLDVAIRVKAIRKFAVSQMSALLDSAHLLASSTQRNGICEVLYAAAWICGEFSEHLQEPHHTLEAMLRPRVTTLPGHIQAVYVQNVVKLYASILQQKEQAGEAEGAQAVTQLMVDRLPQFVQSADLEVQERASCILQLVKHIQKLQAKDVPVAEEVSALFAGELNPVAPKAQKKVPVPEGLDLDAWINEPLSDSESEDERPRAVFHEEEQRRPKHRPSEADEEELARRREARKQEQANNPFYIKSSPSPQKRYQDTPGVEHIPVVQIDLSVPLKVPGLPMSDQYVKLEEERRHRQKLEKDKRRKKRKEKEKKGKRRHSSLPTESDEDIAPAQQVDIVTEEMPENALPSDEDDKDPNDPYRALDIDLDKPLADSEKLPIQKHRNTETSKSPEKDVPMVEKKSKKPKKKEKKHKEKERDKEKKKEKEKKKSPKPKKKKHRKEKEERTKGKKKSKKQPPGSEEAAGEPVQNGAPEEEQLPPESSYSLLAENSYVKMTCDIRGSLQEDSQVTVAIVLENRSSSILKGMELSVLDSLNARMARPQGSSVHDGVPVPFQLPPGVSNEAQYVFTIQSIVMAQKLKGTLSFIAKNDEGATHEKLDFRLHFSCSSYLITTPCYSDAFAKLLESGDLSMSSIKVDGIRMSFQNLLAKICFHHHFSVVERVDSCASMYSRSIQGHHVCLLVKKGENSVSVDGKCSDSTLLSNLLEEMKATLAKC [AP3D1] | 50.8 | 50.6 | -0.178 | -0.378 | -1.02 | -1.46
MARCERLRGAALRDVLGRAQGVLFDCDGVLWNGERAVPGAPELLERLARAGKAALFVSNNSRRARPELALRFARLGFGGLRAEQLFSSALCAARLLRQRLPGPPDAPGAVFVLGGEGLRAELRAAGLRLAGDPSAGDGAAPRVRAVLVGYDEHFSFAKLREACAHLRDPECLLVATDRDPWHPLSDGSRTPGTGSLAAAVETASGRQALVVGKPSPYMFECITENFSIDPARTLMVGDRLETDILFGHRCGMTTVLTLTGVSRLEEAQAYLAAGQHDLVPHYYVESIADLTEGLED [PDXP] | 56.7 | 57.5 | -0.126 | 0.126 | -2.14 | -1.83
MAQEVSEYLSQNPRVAAWVEALRCDGETDKHWRHRRDFLLRNAGDLAPAGGAASASTDEAADAESGTRNRQLQQLISFSMAWANHVFLGCRYPQKVMDKILSMAEGIKVTDAPTYTTRDELVAKVKKRGISSSNEGVEEPSKKRVIEGKNSSAVEQDHAKTSAKTERASAQQENSSTCIGSAIKSESGNSARSSGISSQNSSTSDGDRSVSSQSSSSVSSQVTTAGSGKASEAEAPDKHGSASFVSLLKSSVNSHMTQSTDSRQQSGSPKKSALEGSSASASQSSSEIEVPLLGSSGSSEVELPLLSSKPSSETASSGLTSKTSSEASVSSSVAKNSSSSGTSLLTPKSSSSTNTSLLTSKSTSQVAASLLASKSSSQTSGSLVSKSTSLASVSQLASKSSSQTSTSQLPSKSTSQSSESSVKFSCKLTNEDVKQKQPFFNRLYKTVAWKLVAVGGFSPNVNHGELLNAAIEALKATLDVFFVPLKELADLPQNKSSQESIVCELRCKSVYLGTGCGKSKENAKAVASREALKLFLKKKVVVKICKRKYRGSEIEDLVLLDEESRPVNLPPALKHPQELL [CDKN2AIP] | 50.2 | 50.8 | -0.0367 | -0.0572 | 1.13 | 1.43
MSCCDLAAAGQLGKASIMASDCEPALNQAEGRNPTLERYLGALREAKNDSEQFAALLLVTKAVKAGDIDAKTRRRIFDAVGFTFPNRLLTTKEAPDGCPDHVLRALGVALLACFCSDPELAAHPQVLNKIPILSTFLTARGDPDDAARRSMIDDTYQCLTAVAGTPRGPRHLIAGGTVSALCQAYLGHGYGFDQALALLVGLLAAAETQCWKEAEPDLLAVLRGLSEDFQKAEDASKFELCQLLPLFLPPTTVPPECYRDLQAGLARILGSKLSSWQRNPALKLAARLAHACGSDWIPAGSSGSKFLALLVNLACVEVRLALEETGTEVKEDVVTACYALMELGIQECTRCEQSLLKEPQKVQLVSVMKEAIGAVIHYLLQVGSEKQKEPFVFASVRILGAWLAEETSSLRKEVCQLLPFLVRYAKTLYEEAEEANDLSQQVANLAISPTTPGPTWPGDALRLLLPGWCHLTVEDGPREILIKEGAPSLLCKYFLQQWELTSPGHDTSVLPDSVEIGLQTCCHIFLNLVVTAPGLIKRDACFTSLMNTLMTSLPALVQQQGRLLLAANVATLGLLMARLLSTSPALQGTPASRGFFAAAILFLSQSHVARATPGSDQAVLALSPEYEGIWADLQELWFLGMQAFTGCVPLLPWLAPAALRSRWPQELLQLLGSVSPNSVKPEMVAAYQGVLVELARANRLCREAMRLQAGEETASHYRMAALEQCLSEP [NCDN] | 49.8 | 50.2 | -0.084 | 0.191 | 1.7 | 2.44
SUMF2 | 52.9 | 54.7 | 0.00354 | 0.289 | 4.15 | 3.23
PTBP1 | 49.1 | 48.6 | 0.0339 | 0.378 | 5.29 | 9.17
